Results as given in article PMC12678811.

Legend:
[1] = target: secretin receptor (SCTR) (mouse (endogenous in mouse jejunal ICC-DMP)) (UniProt Q5FWI2)
[2] = target: secretin receptor (SCTR) (mouse (endogenous in mouse jejunal ICC-DMP)) (UniProt Q5FWI2); remark: listed apart in the source
[3] = target: secretin receptor (SCTR) (mouse (endogenous in mouse jejunal ICC-DMP)) (UniProt Q5FWI2); remark: listed apart in the source

UniProt Q5FWI2, sequence (Q5FWI2 29-447): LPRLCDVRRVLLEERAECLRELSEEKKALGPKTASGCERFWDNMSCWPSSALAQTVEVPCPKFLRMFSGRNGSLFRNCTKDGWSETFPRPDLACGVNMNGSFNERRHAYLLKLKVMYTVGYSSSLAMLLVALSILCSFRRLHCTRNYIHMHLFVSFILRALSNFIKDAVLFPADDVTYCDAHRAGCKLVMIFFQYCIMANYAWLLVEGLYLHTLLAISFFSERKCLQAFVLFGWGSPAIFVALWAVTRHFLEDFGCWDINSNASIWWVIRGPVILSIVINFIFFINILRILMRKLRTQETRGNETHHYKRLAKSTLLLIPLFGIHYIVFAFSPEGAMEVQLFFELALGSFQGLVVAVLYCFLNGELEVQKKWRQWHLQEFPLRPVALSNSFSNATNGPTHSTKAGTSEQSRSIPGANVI

contractions of murine jejunal muscle strips, amplitude, secretin 100 nM with TTX 1 uM [1]: 53.3 % of control | contractions of murine jejunal muscle strips, area under the curve, secretin 100 nM with TTX 1 uM [1]: 46.4 % of control | spontaneous contractions of murine jejunal muscle strips, area under the curve, secretin 100 nM, control conditions [1]: 45.6 % of control | spontaneous contractions of murine jejunal muscle strips, contractile amplitude, secretin 100 nM, control conditions [1]: 61.3 % of control | Ca2+ transients in ICC-DMP (GCaMP6f), area of events, secretin 100 nM with TTX 1 uM [2]: 0.57 μm·s | Ca2+ transients in ICC-DMP (GCaMP6f), spatial spread, secretin 100 nM with TTX 1 uM [2]: 3.1 μm | cAMP level in ICC-DMP, FRET ratio (mTurquoise/Venus) of the CAMPER sensor, secretin 100 nM [3]: 108 % of control
B1: Secretin, human (peptide)
peptide: HSDGTFTSELSRLREGARLQRLLQGLV
